Test [1] addresses wild-type tethered MBP-RAMP2 ECD-CLR ECD fusion protein (UniProt O60895 43-143).
The target of test [2] is MBP-RAMP2 ECD [L106R]-(GSA)3-CLR ECD-H6 tethered fusion protein (UniProt O60895 43-143, L106R).
In test [3] the target is MBP-RAMP1 ECD-(GSA)3-CLR ECD-H6 tethered fusion protein (UniProt O60894 27-118).

“And” between values parts separate entries of the source, which are not always exact repeats. Equal values may be shown once. Ends that are not written are not given here.

Consider TVQKLAHQIYQFTDKDKDNVAPRSKISPQGY-NH2 [AM(22–52)NH2], for which the IC50 in test [1] is 4.79 µM; in test [2], 5.37 µM and 12.9 µM.
With FVPTDVGPFAY-NH2 [CGRPmut [F37Y]], the IC50 in test [3] was 0.575 µM.

These data come from article PMC4504005 (2015).
